Values quoted from earlier work in publication PMC3100173.

Target: OmpF (Escherichia coli) (UniProt P02931)
Chain of UniProt P02931 (P02931 23-362): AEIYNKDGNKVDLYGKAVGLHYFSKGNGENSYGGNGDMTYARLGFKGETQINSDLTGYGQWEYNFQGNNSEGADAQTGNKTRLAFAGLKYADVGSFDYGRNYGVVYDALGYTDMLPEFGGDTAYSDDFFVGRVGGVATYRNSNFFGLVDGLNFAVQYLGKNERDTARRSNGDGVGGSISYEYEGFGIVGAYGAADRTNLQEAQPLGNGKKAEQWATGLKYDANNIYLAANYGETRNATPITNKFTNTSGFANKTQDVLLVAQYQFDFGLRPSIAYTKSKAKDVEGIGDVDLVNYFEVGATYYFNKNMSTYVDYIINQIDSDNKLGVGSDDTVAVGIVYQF

Colicin N (from UniProt P08083)
Kd: 200 µM
